Results as given in patent US20150274828A1 (SHANGHAI SERUM BIOTECHNOLOGY, published 2015).
Positions count from the first letter of the chain named.

B1: Ame55 mutant, heavy chain 51A (antibody, V domains shown)
VH: EVQLVQSGAEVKKPGESLKISCKGSGYSFTSYWIGWVRQMPGKGLEWMGIAYPGDSDTRYSPSFQGQVTISADKSISTAYLQWSSLKASDTAMYYCARGIIYPSNVAVWGQGTLVTVSS
VL: SYELTQPPSVSVAPGQTARITCSGDALGDKYASWYQQKPGQAPVLVIYEDSKRPSGIPERFSGSNSGNTATLTISGTQAEDEADYYCSVWDGDWGMPVFGGGTKLTVLG
notes: Mutant of Ame55
B2: Ame55 mutant, heavy chain 56A (antibody, V domains shown)
VH: B1 VH with A51I, S56A
VL: B1 VL
notes: Mutant of Ame55
B3: Ame55 mutant, light chain 91A (antibody, V domains shown)
VH: B1 VH with A51I
VL: B1 VL with D91A
notes: Mutant of Ame55
B4: Ame55 mutant, light chain 32I (antibody, V domains shown)
VH: B1 VH with A51I
VL: B1 VL with A32I
notes: Mutant of Ame55
B5: Ame55 mutant, light chain 89L (antibody, V domains shown)
VH: B1 VH with A51I
VL: B1 VL with V89L
notes: Mutant of Ame55
B6: Ame55 mutant, light chain 26N(C2) (antibody, V domains shown)
VH: B1 VH with A51I
VL: B1 VL with A26N
notes: Mutant of Ame55
B7: Ame55 mutant, light chain 92P (antibody, V domains shown)
VH: B1 VH with A51I
VL: B1 VL with G92P
notes: Mutant of Ame55
B8: Ame55 mutant, light chain 93A (antibody, V domains shown)
VH: B1 VH with A51I
VL: B1 VL with D93A
notes: Mutant of Ame55
B9: Ame55 mutant, heavy chain 52D (antibody, V domains shown)
VH: B1 VH with A51I, Y52D
VL: B1 VL
notes: Mutant of Ame55
B10: Ame55 mutant, light chain 88Y (antibody, V domains shown)
VH: B1 VH with A51I
VL: B1 VL with S88Y
notes: Mutant of Ame55
B11: Ame55 mutant, light chain 92S (antibody, V domains shown)
VH: B1 VH with A51I
VL: B1 VL with G92S
notes: Mutant of Ame55
B12: Ame55 mutant, heavy chain 60A (antibody, V domains shown)
VH: B1 VH with A51I, Y60A
VL: B1 VL
notes: Mutant of Ame55
B13: Ame55 mutant, heavy chain 54S (antibody, V domains shown)
VH: B1 VH with A51I, G54S
VL: B1 VL
notes: Mutant of Ame55
B14: Ame55 mutant, light chain 88A (antibody, V domains shown)
VH: B1 VH with A51I
VL: B1 VL with S88A
notes: Mutant of Ame55
B15: Ame55 mutant, heavy chain 104A (antibody, V domains shown)
VH: B1 VH with A51I, S104A
VL: B1 VL
notes: Mutant of Ame55
B16: Ame55 mutant, heavy chain 105A (antibody, V domains shown)
VH: B1 VH with A51I, N105A
VL: B1 VL
notes: Mutant of Ame55
B17: Ame55 mutant, light chain 33Y (antibody, V domains shown)
VH: B1 VH with A51I
VL: B1 VL with S33Y
notes: Mutant of Ame55
B18: Ame55 mutant, heavy chain 58A (antibody, V domains shown)
VH: B1 VH with A51I, T58A
VL: B1 VL
notes: Mutant of Ame55
B19: Ame55 mutant, light chain 92A (antibody, V domains shown)
VH: B1 VH with A51I
VL: B1 VL with G92A
notes: Mutant of Ame55
B20: Ame55 mutant, heavy chain 107S (antibody, V domains shown)
VH: B1 VH with A51I, A107S
VL: B1 VL
notes: Mutant of Ame55
B21: Ame55 mutant, heavy chain 100A (antibody, V domains shown)
VH: B1 VH with A51I, I100A
VL: B1 VL
notes: Mutant of Ame55
B22: Ame55 mutant, light chain 95A (antibody, V domains shown)
VH: B1 VH with A51I
VL: B1 VL with G95A
notes: Mutant of Ame55
B23: Ame55 mutant, heavy chain 53A (antibody, V domains shown)
VH: B1 VH with A51I, P53A
VL: B1 VL
notes: Mutant of Ame55
B24: Ame55 mutant, heavy chain 99S (antibody, V domains shown)
VH: B1 VH with A51I, G99S
VL: B1 VL
notes: Mutant of Ame55
B25: Ame55 mutant, light chain 26G(C1) (antibody, V domains shown)
VH: B1 VH with A51I
VL: B1 VL with A26G
notes: Mutant of Ame55
B26: Ame55 mutant, light chain 94A (antibody, V domains shown)
VH: B1 VH with A51I
VL: B1 VL with W94A
notes: Mutant of Ame55
B27: Ame55 mutant, light chain 26K(C3) (antibody, V domains shown)
VH: B1 VH with A51I
VL: B1 VL with A26K
notes: Mutant of Ame55
B28: Ame55 mutant, light chain 32V (antibody, V domains shown)
VH: B1 VH with A51I
VL: B1 VL with A32V
notes: Mutant of Ame55
B29: Ame55 mutant, light chain 88N (antibody, V domains shown)
VH: B1 VH with A51I
VL: B1 VL with S88N
notes: Mutant of Ame55
B30: Ame55 mutant, heavy chain 99A (antibody, V domains shown)
VH: B1 VH with A51I, G99A
VL: B1 VL
notes: Mutant of Ame55
B31: Ame55 mutant, light chain 88G (antibody, V domains shown)
VH: B1 VH with A51I
VL: B1 VL with S88G
notes: Mutant of Ame55
B32: Ame55 mutant, heavy chain 101A (antibody, V domains shown)
VH: B1 VH with A51I, I101A
VL: B1 VL
notes: Mutant of Ame55
B33: Ame55 mutant, heavy chain 54A (antibody, V domains shown)
VH: B1 VH with A51I, G54A
VL: B1 VL
notes: Mutant of Ame55
B34: Ame55 mutant, light chain 96A (antibody, V domains shown)
VH: B1 VH with A51I
VL: B1 VL with M96A
notes: Mutant of Ame55
B35: Ame55 mutant, light chain 29E (antibody, V domains shown)
VH: B1 VH with A51I
VL: B1 VL with D29E
notes: Mutant of Ame55
B36: Ame55 mutant, heavy chain 59N (antibody, V domains shown)
VH: B1 VH with A51I, R59N
VL: B1 VL
notes: Mutant of Ame55
B37: Ame55 mutant, light chain 55P (antibody, V domains shown)
VH: B1 VH with A51I
VL: B1 VL with S55P
notes: Mutant of Ame55
B38: Ame55 mutant, light chain 88L (antibody, V domains shown)
VH: B1 VH with A51I
VL: B1 VL with S88L
notes: Mutant of Ame55
B39: Ame55 mutant, light chain 88Q (antibody, V domains shown)
VH: B1 VH with A51I
VL: B1 VL with S88Q
notes: Mutant of Ame55
B40: Ame55 mutant, light chain 90A (antibody, V domains shown)
VH: B1 VH with A51I
VL: B1 VL with W90A
notes: Mutant of Ame55
B41: Ame55 mutant, heavy chain 106A (antibody, V domains shown)
VH: B1 VH with A51I, V106A
VL: B1 VL
notes: Mutant of Ame55
B42: Ame55 mutant, heavy chain 108A (antibody, V domains shown)
VH: B1 VH with A51I, V108A
VL: B1 VL
notes: Mutant of Ame55
B43: Ame55 mutant, light chain 51G (antibody, V domains shown)
VH: B1 VH with A51I
VL: B1 VL with S51G
notes: Mutant of Ame55
B44: Ame55 mutant, heavy chain 59A (antibody, V domains shown)
VH: B1 VH with A51I, R59A
VL: B1 VL
notes: Mutant of Ame55
B45: Ame55 mutant, light chain 95S (antibody, V domains shown)
VH: B1 VH with A51I
VL: B1 VL with G95S
notes: Mutant of Ame55
B46: Ame55 mutant, heavy chain 55A (antibody, V domains shown)
VH: B1 VH with A51I, D55A
VL: B1 VL
notes: Mutant of Ame55
B47: Ame55 mutant, heavy chain 107G (antibody, V domains shown)
VH: B1 VH with A51I, A107G
VL: B1 VL
notes: Mutant of Ame55

Each binder was assayed against T1, EGFR-Fc fusion protein (recombinant EGFR extracellular region-Fc) (human, UniProt P00533 25-645) (assay: BLI ForteBio QKe, biotinylated EGFR-Fc on streptavidin sensor, antibody 20 nM; fold reduction of affinity, parent Ame55 = 1;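 also: parent antibody affinity set as 1, with values giving the fold drop in affinity of each mutant antibody relative to that parent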).
T1 construct: extracellular domain; not shown: Fc part supplied by vector pABG1

Affinity change | Binder
> 10 fold | B1
1 fold | B2
> 10 fold | B3
1 fold | B4
5 fold | B5
1 fold | B6
1 fold | B7
> 10 fold | B8
> 10 fold | B9
5 fold | B10
4 fold | B11
5 fold | B12
0.5 fold | B13
> 10 fold | B14
3 fold | B15
> 10 fold | B16
2 fold | B17
> 10 fold | B18
2 fold | B19
0.2 fold | B20
5 fold | B21
> 10 fold | B22
5 fold | B23
> 10 fold | B24

Affinity change | Binder
0.5 fold | B25
> 10 fold | B26
0.3 fold | B27
2 fold | B28
> 10 fold | B29
> 10 fold | B30
3 fold | B31
4 fold | B32
> 10 fold | B33
> 10 fold | B34
> 100 fold | B35
> 10 fold | B36
2 fold | B37
5 fold | B38
2 fold | B39
> 10 fold | B40
> 10 fold | B41
5 fold | B42
1 fold | B43
> 10 fold | B44
> 10 fold | B45
> 100 fold | B46
1.5 fold | B47
